Starred links: 1 amine or outer side, 2 acyl side, 3 side chain; linkers in the order of their positions; H or OH if unused. Non-standard residues stand in square brackets, D forms with d. *: point of attachment. dBip = N[C@H](Cc1ccc(-c2ccccc2)cc1)C(=O)O; Oic = O=C(O)[C@@H]1C[C@@H]2CCCC[C@@H]2N1; Phe(4-I) = N[C@@H](Cc1ccc(I)cc1)C(=O)O; γGlu = O=C(O)[C@H](CCC(=O)[*:2])N[*:1]; Tridecanoyl = CCCCCCCCCCCCC(=O)*; hArg = N=C(N)NCCCC[C@H](N)C(=O)O; Cha = N[C@@H](CC1CCCCC1)C(=O)O; NMeL = CN[C@@H](CC(C)C)C(=O)O; Tle = CC(C)(C)[C@H](N)C(=O)O; AEEA = NCCOCCOCC(=O)O; BLeu = β-leucine; βAla = NCCC(=O)O
T1: human APJ receptor (human, UniProt P35414 1-380)
T1 sequence (looked up): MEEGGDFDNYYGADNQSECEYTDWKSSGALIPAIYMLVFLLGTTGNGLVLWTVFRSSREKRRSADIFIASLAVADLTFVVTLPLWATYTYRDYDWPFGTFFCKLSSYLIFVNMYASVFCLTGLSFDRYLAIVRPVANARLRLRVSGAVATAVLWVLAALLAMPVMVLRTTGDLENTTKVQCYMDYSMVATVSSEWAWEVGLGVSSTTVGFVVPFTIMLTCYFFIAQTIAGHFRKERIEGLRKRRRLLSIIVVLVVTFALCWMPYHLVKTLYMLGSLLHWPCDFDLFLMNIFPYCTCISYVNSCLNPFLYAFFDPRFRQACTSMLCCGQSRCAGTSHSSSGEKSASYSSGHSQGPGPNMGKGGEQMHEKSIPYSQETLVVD

T2: rat APJ receptor (rat, UniProt Q9JHG3 1-377)
T2 sequence (looked up): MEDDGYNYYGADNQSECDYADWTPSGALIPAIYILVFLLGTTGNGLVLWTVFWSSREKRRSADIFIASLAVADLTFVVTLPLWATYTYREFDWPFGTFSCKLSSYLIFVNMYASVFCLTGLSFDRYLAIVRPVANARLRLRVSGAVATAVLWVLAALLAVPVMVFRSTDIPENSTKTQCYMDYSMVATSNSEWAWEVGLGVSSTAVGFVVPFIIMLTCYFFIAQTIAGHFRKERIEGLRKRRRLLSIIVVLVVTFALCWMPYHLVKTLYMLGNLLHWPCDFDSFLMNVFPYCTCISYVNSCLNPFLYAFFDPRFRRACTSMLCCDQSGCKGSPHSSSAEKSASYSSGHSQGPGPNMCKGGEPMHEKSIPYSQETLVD


What was measured:
human APJ receptor = molecular target: T1, human APJ receptor; test: cell-based or functional assay
rat APJ receptor = molecular target: T2, rat APJ receptor; test: cell-based or functional assay

Binder | EC50 Human APJ Receptor (human APJ receptor) | EC50 Rat APJ Receptor (rat APJ receptor)
Tridecanoyl-[γGlu][AEEA][AEEA][hArg][dQ][hArg]P[dR][BLeu]SHKG[Oic][Phe(4-I)]P[dBip]-OH [apelin polypeptide SEQ ID NO: 180] | 10 nM | 27.3 nM
Tridecanoyl-[γGlu][AEEA][AEEA][hArg]Q[dR]P[dR][NMeL]SHKG[Oic][Phe(4-I)][dBip]-OH (SMILES CCCCCCCCCCCCC(=O)N[C@@H](CCC(=O)NCCOCCOCC(=O)NCCOCCOCC(=O)N[C@@H](CCCCNC(=N)N)C(=O)N[C@@H](CCC(N)=O)C(=O)N[C@H](CCCNC(=N)N)C(=O)N1CCC[C@H]1C(=O)N[C@H](CCCNC(=N)N)C(=O)N(C)[C@@H](CC(C)C)C(=O)N[C@@H](CO)C(=O)N[C@@H](Cc1c[nH]cn1)C(=O)N[C@@H](CCCCN)C(=O)NCC(=O)N1[C@H](C(=O)N[C@@H](Cc2ccc(I)cc2)C(=O)N[C@H](Cc2ccc(-c3ccccc3)cc2)C(=O)O)C[C@@H]2CCCC[C@@H]21)C(=O)O) [apelin polypeptide SEQ ID NO: 175] | 1.32 nM | 8.54 nM
Ac-[hArg][dR]Q[hArg]P[dR][NMeL]SHKG[Oic][Phe(4-I)]P[dBip]-OH (SMILES CC(=O)N[C@@H](CCCCNC(=N)N)C(=O)N[C@H](CCCNC(=N)N)C(=O)N[C@@H](CCC(N)=O)C(=O)N[C@@H](CCCCNC(=N)N)C(=O)N1CCC[C@H]1C(=O)N[C@H](CCCNC(=N)N)C(=O)N(C)[C@@H](CC(C)C)C(=O)N[C@@H](CO)C(=O)N[C@@H](Cc1c[nH]cn1)C(=O)N[C@@H](CCCCN)C(=O)NCC(=O)N1[C@H](C(=O)N[C@@H](Cc2ccc(I)cc2)C(=O)N2CCC[C@H]2C(=O)N[C@H](Cc2ccc(-c3ccccc3)cc2)C(=O)O)C[C@@H]2CCCC[C@@H]21) [apelin polypeptide SEQ ID NO: 16] | 0.375 nM | 0.729 nM
Tridecanoyl-[γGlu][AEEA][AEEA][hArg][dQ][hArg]P[dR][NMeL]SHKG[Oic][Phe(4-I)][dBip]-OH (SMILES CCCCCCCCCCCCC(=O)N[C@@H](CCC(=O)NCCOCCOCC(=O)NCCOCCOCC(=O)N[C@@H](CCCCNC(=N)N)C(=O)N[C@H](CCC(N)=O)C(=O)N[C@@H](CCCCNC(=N)N)C(=O)N1CCC[C@H]1C(=O)N[C@H](CCCNC(=N)N)C(=O)N(C)[C@@H](CC(C)C)C(=O)N[C@@H](CO)C(=O)N[C@@H](Cc1c[nH]cn1)C(=O)N[C@@H](CCCCN)C(=O)NCC(=O)N1[C@H](C(=O)N[C@@H](Cc2ccc(I)cc2)C(=O)N[C@H](Cc2ccc(-c3ccccc3)cc2)C(=O)O)C[C@@H]2CCCC[C@@H]21)C(=O)O) [apelin polypeptide SEQ ID NO: 174] | 3.6 nM | 16.5 nM
Tridecanoyl-[γGlu][AEEA][AEEA][dR]Q[hArg]P[dR][NMeL]SHKG[Oic][Phe(4-I)][dBip]-OH (SMILES CCCCCCCCCCCCC(=O)N[C@@H](CCC(=O)NCCOCCOCC(=O)NCCOCCOCC(=O)N[C@H](CCCNC(=N)N)C(=O)N[C@@H](CCC(N)=O)C(=O)N[C@@H](CCCCNC(=N)N)C(=O)N1CCC[C@H]1C(=O)N[C@H](CCCNC(=N)N)C(=O)N(C)[C@@H](CC(C)C)C(=O)N[C@@H](CO)C(=O)N[C@@H](Cc1c[nH]cn1)C(=O)N[C@@H](CCCCN)C(=O)NCC(=O)N1[C@H](C(=O)N[C@@H](Cc2ccc(I)cc2)C(=O)N[C@H](Cc2ccc(-c3ccccc3)cc2)C(=O)O)C[C@@H]2CCCC[C@@H]21)C(=O)O) [apelin polypeptide SEQ ID NO: 173] | 1.66 nM | 13.7 nM

More lines, now with the values ahead:

EC50 Human APJ Receptor (human APJ receptor) | EC50 Rat APJ Receptor (rat APJ receptor) | Binder
49.4 nM | 182 nM | Tridecanoyl-[γGlu][AEEA][AEEA][hArg][dQ][hArg]P[dR][NMeL]S[Tle]KG[Oic][Phe(4-I)]P[dBip]-OH (SMILES CCCCCCCCCCCCC(=O)N[C@@H](CCC(=O)NCCOCCOCC(=O)NCCOCCOCC(=O)N[C@@H](CCCCNC(=N)N)C(=O)N[C@H](CCC(N)=O)C(=O)N[C@@H](CCCCNC(=N)N)C(=O)N1CCC[C@H]1C(=O)N[C@H](CCCNC(=N)N)C(=O)N(C)[C@@H](CC(C)C)C(=O)N[C@@H](CO)C(=O)N[C@H](C(=O)N[C@@H](CCCCN)C(=O)NCC(=O)N1[C@H](C(=O)N[C@@H](Cc2ccc(I)cc2)C(=O)N2CCC[C@H]2C(=O)N[C@H](Cc2ccc(-c3ccccc3)cc2)C(=O)O)C[C@@H]2CCCC[C@@H]21)C(C)(C)C)C(=O)O) [apelin polypeptide SEQ ID NO: 201]
8.48 nM | 32.4 nM | Tridecanoyl-[γGlu][AEEA][AEEA][hArg][dQ][hArg]P[dR][NMeL]SAKG[Oic][Phe(4-I)]P[dBip]-OH (SMILES CCCCCCCCCCCCC(=O)N[C@@H](CCC(=O)NCCOCCOCC(=O)NCCOCCOCC(=O)N[C@@H](CCCCNC(=N)N)C(=O)N[C@H](CCC(N)=O)C(=O)N[C@@H](CCCCNC(=N)N)C(=O)N1CCC[C@H]1C(=O)N[C@H](CCCNC(=N)N)C(=O)N(C)[C@@H](CC(C)C)C(=O)N[C@@H](CO)C(=O)N[C@@H](C)C(=O)N[C@@H](CCCCN)C(=O)NCC(=O)N1[C@H](C(=O)N[C@@H](Cc2ccc(I)cc2)C(=O)N2CCC[C@H]2C(=O)N[C@H](Cc2ccc(-c3ccccc3)cc2)C(=O)O)C[C@@H]2CCCC[C@@H]21)C(=O)O) [apelin polypeptide SEQ ID NO: 199]
2.92 nM | 5.81 nM | Tridecanoyl-[γGlu][AEEA][AEEA]RQRP[hArg][Cha]SHKG[Oic][Phe(4-I)]P[dBip]-OH (SMILES CCCCCCCCCCCCC(=O)N[C@@H](CCC(=O)NCCOCCOCC(=O)NCCOCCOCC(=O)N[C@@H](CCCNC(=N)N)C(=O)N[C@@H](CCC(N)=O)C(=O)N[C@@H](CCCNC(=N)N)C(=O)N1CCC[C@H]1C(=O)N[C@@H](CCCCNC(=N)N)C(=O)N[C@@H](CC1CCCCC1)C(=O)N[C@@H](CO)C(=O)N[C@@H](Cc1c[nH]cn1)C(=O)N[C@@H](CCCCN)C(=O)NCC(=O)N1[C@H](C(=O)N[C@@H](Cc2ccc(I)cc2)C(=O)N2CCC[C@H]2C(=O)N[C@H](Cc2ccc(-c3ccccc3)cc2)C(=O)O)C[C@@H]2CCCC[C@@H]21)C(=O)O) [apelin polypeptide SEQ ID NO: 214]
0.647 nM | 1.17 nM | Tridecanoyl-[γGlu][AEEA][AEEA][dR]QRP[hArg][NMeL]SHKG[Oic][Phe(4-I)]P[dBip]-OH (SMILES CCCCCCCCCCCCC(=O)N[C@@H](CCC(=O)NCCOCCOCC(=O)NCCOCCOCC(=O)N[C@H](CCCNC(=N)N)C(=O)N[C@@H](CCC(N)=O)C(=O)N[C@@H](CCCNC(=N)N)C(=O)N1CCC[C@H]1C(=O)N[C@@H](CCCCNC(=N)N)C(=O)N(C)[C@@H](CC(C)C)C(=O)N[C@@H](CO)C(=O)N[C@@H](Cc1c[nH]cn1)C(=O)N[C@@H](CCCCN)C(=O)NCC(=O)N1[C@H](C(=O)N[C@@H](Cc2ccc(I)cc2)C(=O)N2CCC[C@H]2C(=O)N[C@H](Cc2ccc(-c3ccccc3)cc2)C(=O)O)C[C@@H]2CCCC[C@@H]21)C(=O)O) [apelin polypeptide SEQ ID NO: 213]
1.9 nM | 6.29 nM | Tridecanoyl-[γGlu][AEEA][AEEA]RQRP[dR][NMeL]SHKG[Oic][Phe(4-I)]P[dBip]-OH (SMILES CCCCCCCCCCCCC(=O)N[C@@H](CCC(=O)NCCOCCOCC(=O)NCCOCCOCC(=O)N[C@@H](CCCNC(=N)N)C(=O)N[C@@H](CCC(N)=O)C(=O)N[C@@H](CCCNC(=N)N)C(=O)N1CCC[C@H]1C(=O)N[C@H](CCCNC(=N)N)C(=O)N(C)[C@@H](CC(C)C)C(=O)N[C@@H](CO)C(=O)N[C@@H](Cc1c[nH]cn1)C(=O)N[C@@H](CCCCN)C(=O)NCC(=O)N1[C@H](C(=O)N[C@@H](Cc2ccc(I)cc2)C(=O)N2CCC[C@H]2C(=O)N[C@H](Cc2ccc(-c3ccccc3)cc2)C(=O)O)C[C@@H]2CCCC[C@@H]21)C(=O)O) [apelin polypeptide SEQ ID NO: 211]
28.9 nM | 104 nM | Tridecanoyl-[γGlu][AEEA][AEEA][hArg][dQ][hArg]P[dR][NMeL][βAla]HKG[Oic][Phe(4-I)]P[dBip]-OH (SMILES CCCCCCCCCCCCC(=O)N[C@@H](CCC(=O)NCCOCCOCC(=O)NCCOCCOCC(=O)N[C@@H](CCCCNC(=N)N)C(=O)N[C@H](CCC(N)=O)C(=O)N[C@@H](CCCCNC(=N)N)C(=O)N1CCC[C@H]1C(=O)N[C@H](CCCNC(=N)N)C(=O)N(C)[C@@H](CC(C)C)C(=O)NCCC(=O)N[C@@H](Cc1c[nH]cn1)C(=O)N[C@@H](CCCCN)C(=O)NCC(=O)N1[C@H](C(=O)N[C@@H](Cc2ccc(I)cc2)C(=O)N2CCC[C@H]2C(=O)N[C@H](Cc2ccc(-c3ccccc3)cc2)C(=O)O)C[C@@H]2CCCC[C@@H]21)C(=O)O) [apelin polypeptide SEQ ID NO: 208]

From patent US10941182 (Amgen, dated 2021)
